# Where “and” joins values, the source holds several entries; their conditions need not be identical. Equal entries are not always repeated.
# B1: PNA: peanut (Arachis hypogaea) agglutinin, T-antigen binding lectin (protein, UniProt P02872 24-273, looked up)
# Galactose-binding lectin: AETVSFNFNSFSEGNPAINFQGDVTVLSNGNIQLTNLNKVNSVGRVLYAMPVRIWSSATGNVASFLTSFSFEMKDIKDYDPADGIIFFIAPEDTQIPAGSIGGGTLGVSDTKGAGHFVGVEFDTYSNSEYNDPPTDHVGIDVNSVDSVKTVPWNSVSGAVVKVTVIYDSSTKTLSVAVTNDNGDITTIAQVVDLKAKLPERVKFGFSASGSLGGRQIHLIRSWSFTSTLITTTRRSIDNNEKKIMNMASA
# B2: asialoglycophorin: desialylated glycophorin (protein, UniProt P02724 20-150, looked up)
# Glycophorin-A: LSTTEVAMHTSTSSSVTKSYISSQTNDTHKRDTYAATPRAHEVSEISVRTVYPPEEETGERVQLAHHFSEPEITLIIFGVMAGVIGTILLISYGIRRLIKKSPSDVKPLPSPDTDVPLSSVEIENPETSDQ
# modifications: desialylated
# notes: desialylated glycophorin
# B3: glycophorin: native glycophorin, major component of red blood cell membranes (protein, UniProt P02724 20-150, looked up)
# Glycophorin-A: B2 Glycophorin-A
# Assays:
# [1] = tested on: well differentiated colonic adenocarcinoma sections; experiment: Inhibition of lectin binding with hapten sugars on tissue sections; design: species or system human; key to Labeling score: 4^+: Maximum labeling of the brown reaction product; 0: No staining of the slide compared to control sections; 1^+: trace or weak staining definitely not seen on control slides; 2+3^+: stronger staining, but definitely less than maximal
# Experimental: Four micron paraffin embedded tissue sections attached to glass slides were deparaffinized by serial incubations in xylene (twice), absolute ethanol (thrice), 95% ethanol, 70% ethanol, water and finally equilibrated in phosphate buffered saline (PBS), pH 7.0, containing 0.1% bovine serum albumin (BSA) commercially available from Sigma Corp of St. Louis, Mo. The slides were blotted dry adjacent to the tissue sections, and biotinylated lectin was added at a concentration of 10 μg/ml (for ACA) and 20 μg/ml (for PNA) in a quantity sufficient to completely cover the hydrated tissue (100-2001 μl). The lectin was rinsed off after a 30 minute incubation by eight 2-second dips into phosphate buffered saline. The slides were again blotted, and the tissue covered with Streptavidin-horseradish peroxidase (HRP) obtained from Zymed Laboratories, San Francisco, Calif. at a concentration of 10 μg/ml for 30 minutes. The slides were rinsed as mentioned above, and the pigmented reaction product developed by the addition of a freshly prepared chromogen reagent solution prepared within two hours of use as follows.
# 3,3'-diaminobenzidine was aliqotted at 5 mg/mL in 0.01 M (Tris) tris hydroxy methyl amino methane saline, pH 7.5 and frozen at -70° C. until use. For use, the aliquot was thawed, diluted 1:10 in 0.01 M (Tris) tris hydroxy methyl amino methane saline pH 7.5, and 3.3 μL of 30% H2 O2 were added to each 5 ml. This solution was allowed to stand for 10 min, and 100-200 μl was applied to the tissue sections that had been incubated earlier with biotinylated lectin and Streptavidin-HRP. After 10 min, the slides were rinsed with albumin-free phosphate buffered saline. The tissues were briefly counterstained for 50 seconds with Gill's #3 hematoxylin bovine serum albumin, commercially available from Sigma Corp. of St. Louis, Mo., rinsed with water, and serially dehydrated using graded alcohols and xylene, and embedded in Permount, a trademarked, commercially available product of Allied-Fischer Scientific of Livonia, Mich.
# The specificity of lectin binding was evaluated by preincubating the biotinylated lectin with inhibitory hapten sugar for 1-2 hours prior to its application to the tissue. In each instance, the reagents were prepared so that the final concentration of lectin on the slide was either 10 or 20 μg/ml and the hapten sugar was as indicated in the results. Galactose, lactose, GalNAc, and galactose-β1-3N-acetylgalactosamine-α-O-benzyl (T-antigen-α-O-benzyl) were also obtained from Sigma Corp.
# The stained sections were examined with a light microscope using a 25× and 40× objective lenses and 10× eyepiece. Evaluation of lectin binding required the use of several approaches. First, the binding specificity was confirmed by coincubation of lectin with hapten sugars known to bind the lectin maximally. Maximum labeling of the brown reaction product was arbitrarily assigned a score 4^+. See Boland, C. R., Bresalier, R. S., and Roberts, J. A. "Assay of lectin binding sites in colonic cancer-associated mucins: comparison of fluorescence microscopy with a quantitative chromatographic technique." J. Histochem. Cytochem., 36: 1329-1334, 1988. No staining of the slide compared to control sections (i.e., in which lectin was omitted from the staining procedure) was assigned a score of 0. Intermediate scores of 1^+ (trace or weak staining definitely not seen on control slides) and 2+3^+ (stronger staining, but definitely less than maximal) were assigned. […] See Boland. This method was used to confirm the binding specificity to known "positive" tissues and to evaluate changes in lectin binding after neuraminidase treatment.
# Specimens of well differentiated colonic cancers were incubated with biotinylated lectins. Working concentrations on the slide were 10 μg/ml for ACA and 20 μg/ml for PNA. The hapten sugars galactose (Gal), N-acetylgalactosamine (GalNAc), and Galβ1,3GalNAc-α-O-benzyl (T-antigen) were used to inhibit lectin binding to the tissues. […]
# [2] = tested on: normal colonic epithelium; format: binding, human
# colonic adenocarcinoma = format: binding, human; settings: cancer specimens
# FAP colonic tissue = experiment: Lectin histochemistry, familial adenomatous polyposis (FAP) colonic tissue; format: binding, human; settings: biotinylated ACA 10 μg/mL or PNA 20 μg/mL
# Excerpt: Full thickness specimens of colonic tissue were obtained from colectomy specimens for familial adenomatous polyposis at Johns Hopkins Hospital, fixed in formalin, and embedded in paraffin for tissue sectioning. The tissue specimens contained normal-appearing flat mucosa familial adenomatous polyposis, or FAP-normal, as well as a polypoid, adenomatious tissue familial adenomatous polyposis, or FAP-abnormal.
# (§1) Four micron paraffin embedded tissue sections attached to glass slides were deparaffinized by serial incubations in xylene (twice), absolute ethanol (thrice), 95% ethanol, 70% ethanol, water and finally equilibrated in phosphate buffered saline (PBS), pH 7.0, containing 0.1% bovine serum albumin (BSA) commercially available from Sigma Corp of St. Louis, Mo. The slides were blotted dry adjacent to the tissue sections, and biotinylated lectin was added at a concentration of 10 μg/ml (for ACA) and 20 μg/ml (for PNA) in a quantity sufficient to completely cover the hydrated tissue (100-2001 μl). The lectin was rinsed off after a 30 minute incubation by eight 2-second dips into phosphate buffered saline. […]
# Therefore, each individual crypt of Lieberkuhn was given a score from 0-4^+, and the labeling was expressed as a "weighted average", or, the sum of scores from 100 crypts, which could range from 0 (all crypts not labeled) to 400 (all 100 crypts maximally labeled). […]
# HNPCC tissues = experiment: Lectin histochemistry, HNPCC rectal biopsies; format: binding, human; settings: biotinylated ACA 10 μg/mL or PNA 20 μg/mL
# Excerpt: Rectal biopsies were obtained from individuals who were first degree relatives of patients with hereditary nonpolyposis colorectal cancer (HNPCC) as identified by H. T. Lynch, M.D. These patients were the siblings or offspring of index patients who fit the criteria for Lynch Syndrome I or II. See Drzeniek, Z., and Usowska, E. (1979) Arch. Immunol Ther. Exp. 27, 253-262. However, since there is no definitive genetic or phenotypic marker for this familial syndrome, it is not possible to be certain that these patients represent a single homogenous genetic abnormality. The biopsies were fixed in formalin, and embedded in paraffin for tissue sectioning.
# as §1
# [3] = tested on: human red blood cells (A, B, and O); settings: see Lotan; cited from earlier work
# amaranthin = amaranthin (Amaranthus caudatus, UniProt Q71QF2); experiment: Precipitation of amaranthin by glycoproteins and glycoconjugates, native or glycosidase treated; format: binding; settings: untreated glycoprotein or glycoconjugate; 80 μg amaranthin
# Experimental: Glycosidase digestions, and in particular exo-β-galactosidase digestions were carried out for 9 hours at 37° C. in 0.1 M sodium citrate, pH 4.3 using 0.1 unit of enzyme/μmol of terminal galactosyl group. Endo-α-N-acetylgalactosaminidase treatment of asialo-ovine submaxillary mucin was done as described in Sadler, J. E., Rearick, J. L., Paulson, J. C., and Hill, R. L. (1979). GSC Exo-α-N-acetylgalactosaminidase digestion of asialo-ovine submaxillary mucin was carried out according to the recommendations of Genzyme of Boston, Mass. Glycoproteins were analyzed for carbohydrate composition, before and after glycosidase treatment, as described.
# Precipitation assays were conducted in 1.5 ml centrifuge tubes by the method of So and Goldstein. Indicated amounts of glycoprotein were added to 80 μg of amaranthin, and the total volume was adjusted to 250 μl with phosphate buffered saline. The tubes were incubated at 37° C. and then kept at 4° C. for 2 days. The precipitates were centrifuged, washed with cold Phosphate buffered saline, dissolved in 0.05 N NaOH and analyzed for protein by the method of Lowery et al. using bovine serum albumin as the standard. […] Inhibition was determined relative to the amount of precipitate formed in the control with no sugar added. […]
# Chain of amaranthin (Q71QF2 entry or part of it): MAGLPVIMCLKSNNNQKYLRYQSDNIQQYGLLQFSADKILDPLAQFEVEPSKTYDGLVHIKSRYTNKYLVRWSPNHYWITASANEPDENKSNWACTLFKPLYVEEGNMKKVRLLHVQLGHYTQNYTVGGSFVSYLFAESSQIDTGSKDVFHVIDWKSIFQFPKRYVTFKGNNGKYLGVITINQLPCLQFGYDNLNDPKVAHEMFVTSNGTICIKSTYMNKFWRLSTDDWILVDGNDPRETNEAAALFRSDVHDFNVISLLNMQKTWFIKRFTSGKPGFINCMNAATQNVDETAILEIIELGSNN
molecule,measurement,setting,value
B1,GalNAc concentration that inhibited labeling,[1],≥ 100 mM
same,T-antigen concentration that inhibited labeling,[1],≥ 100 µM
same,galactose concentration that inhibited labeling,[1],≥ 10 mM
same,lactose concentration that inhibited labeling,[1],≥ 10 mM
same,Labeling score,[1]; Gal 2.5 mM,Trace
same,Labeling score,[1]; Gal 10 mM,0
same,Labeling score,[1]; Gal 20 mM,0
same,Labeling score,[1]; Gal 100 mM,0
same,Labeling score,[1]; Gal 400 mM,0
same,Labeling score,[1]; GalNAc 100 mM,0
same,Labeling score,[1]; GalNAc 250 mM,0
same,Labeling score,[1]; Lactose 200 mM,0
same,Labeling score,[1]; Lactose 400 mM,0
same,Labeling score,[1]; T-antigen 100 μM,0
same,Labeling score,[1]; T-antigen 200 μM,0
same,Labeling score,[1]; T-antigen 400 μM,0
same,Effect of neuraminidase treatment on labeling,[2],did not produce an increase
same,Labeling of normal colon in the tissue survey,[2],No labeling
same,Staining (global score 0-3+),[2]; biotinylated ACA 10 μg/mL or PNA 20 μg/mL,does not bind and 0
same,Effect of Newcastle disease virus neuraminidase on labeling,colonic adenocarcinoma,much less effect
same,Effect of V. Cholerae neuraminidase on labeling,colonic adenocarcinoma,greatly enhanced
same,Staining (global score 0-3+),FAP colonic tissue,does not bind and 0
same,Staining (global score 0-3+),HNPCC tissues,rarely binds and 0 and 1^+
same,"agglutination of native A, B, or O red blood cells, in words",[3],does not agglutinate
B2,"precipitation of amaranthin, in words",amaranthin,most active precipitating agent
B3,"precipitation of amaranthin, in words",amaranthin,small amount of precipitate

# Reference: patent US6084072A, “Purified lectin and methods of use” (The Regents of the University of Michigan, priority 1993, dated 2000)
